The values below are quoted from earlier work in article PMC2910649.

The target in this data set is VEGFR2 (Homo sapiens) (UniProt P35968).
UniProt P35968, sequence (P35968 20-1356): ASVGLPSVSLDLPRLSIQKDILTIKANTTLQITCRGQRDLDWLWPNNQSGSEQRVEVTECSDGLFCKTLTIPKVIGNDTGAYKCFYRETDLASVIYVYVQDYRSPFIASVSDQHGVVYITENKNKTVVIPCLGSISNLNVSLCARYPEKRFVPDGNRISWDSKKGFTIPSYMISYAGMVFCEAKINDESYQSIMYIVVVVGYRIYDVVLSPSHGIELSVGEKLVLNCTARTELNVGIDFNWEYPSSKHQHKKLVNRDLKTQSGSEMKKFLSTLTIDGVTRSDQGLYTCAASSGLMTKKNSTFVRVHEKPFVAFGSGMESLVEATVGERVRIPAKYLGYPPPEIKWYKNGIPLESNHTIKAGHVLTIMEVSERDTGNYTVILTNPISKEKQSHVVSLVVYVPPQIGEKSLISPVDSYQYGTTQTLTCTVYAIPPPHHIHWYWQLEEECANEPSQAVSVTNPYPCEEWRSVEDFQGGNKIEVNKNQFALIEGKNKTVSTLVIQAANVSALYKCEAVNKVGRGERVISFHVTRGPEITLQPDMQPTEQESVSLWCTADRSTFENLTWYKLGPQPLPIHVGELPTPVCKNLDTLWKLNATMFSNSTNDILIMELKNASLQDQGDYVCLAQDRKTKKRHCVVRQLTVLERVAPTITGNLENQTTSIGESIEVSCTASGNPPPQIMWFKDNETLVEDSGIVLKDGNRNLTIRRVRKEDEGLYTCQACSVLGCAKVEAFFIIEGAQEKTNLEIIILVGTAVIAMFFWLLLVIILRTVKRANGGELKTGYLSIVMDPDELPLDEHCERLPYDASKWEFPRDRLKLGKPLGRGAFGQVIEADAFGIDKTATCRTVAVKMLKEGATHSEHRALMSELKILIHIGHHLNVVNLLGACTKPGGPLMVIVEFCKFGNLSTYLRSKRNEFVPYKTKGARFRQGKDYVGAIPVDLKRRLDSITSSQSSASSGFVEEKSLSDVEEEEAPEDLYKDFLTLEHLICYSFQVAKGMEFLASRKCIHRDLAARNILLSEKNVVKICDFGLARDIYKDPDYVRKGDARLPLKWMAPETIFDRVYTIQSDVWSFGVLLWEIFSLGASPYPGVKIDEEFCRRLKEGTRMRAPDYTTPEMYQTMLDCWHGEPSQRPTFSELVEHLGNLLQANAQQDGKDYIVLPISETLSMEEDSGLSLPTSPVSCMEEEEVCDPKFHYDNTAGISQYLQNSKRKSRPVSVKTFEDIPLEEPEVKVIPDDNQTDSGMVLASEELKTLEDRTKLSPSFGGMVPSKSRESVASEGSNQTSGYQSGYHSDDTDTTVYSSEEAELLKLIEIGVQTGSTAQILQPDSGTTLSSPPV

Usually Kd stands for the constant that tells how readily two partners part at equilibrium. As for VEGF-A165 (from UniProt P15692), the Kd is 0.21 nM.
